Measurements as given in the DeepSol protein solubility set.

Assay: soluble on expression in E. coli; label from the status in PepcDB or PDB records

Row | Sequence | soluble on expression in E. coli
1 | MGSDKIHHHHHHMPFSSAALHALLQPGVSERWQAVQRLLHPEMLVLANRAAERAAALLPQQWPLYELSFKSRRAIDRGGGRRDPITDYWFAFDRPPRGAGVMLTVSGIERTVTVGLQLWGVRRPQLAHLWSQARPVWEALIDRIEHEGQARFAGRRPPMTGMRWIDHYLNSRAHYLWAGFVYDWNALPTAERLIDDICALLPLNEALMEQAEIDLATTNTLRETPARYLTGAPSVAQIVMSIKRRGMIIDERTLHAFHLAVQARPLVILAGPSGSGKTWLTRLYADALIGIGEGQPNPCYLLVAVQPDWHSARDLLGYYNSLTGLYQPTPFLNFLLKAAADPDQTYIVCLDEMNLARPEYYLAPILSAMEAVEGLIDLGTPLAETPLAGGGVVRNPIRLPINLRLIGTINVDESTFALSDKVLDRANLIELGTVDMAALALTVSDSKRSGLADIERHPAPPDCCRKAGRLPRLARDTWLRWAGNRYERFRSTRSSDSAAPATALAR | not soluble
2 | MKVYVGNLGTGAGKGELERAFSYYGPLRTVWIARNPPGFAFVEFEDPRDAEDAVRGLDGKVICGSRVRVELSTGMPRRSRFDRPPARRKLLEVLFNGPLEH | soluble
3 | MDKNWMIAMHNPATIYNPNAQTEFVEFPIYTVLIDHPEGKILFDTACNPNSMGPQGRWAEVTQQMFPWNASEECYLHNRLEQLKVRPEDIRYVVASHLHLDHAGCLEMFTNATIIVHEDEFNGALQCYARNQKEGAYIWADIDAWIKNNLQWRTVKRHEDNILLAEGVRVLNFGSGHAWGMLGLHVELPETGKIILASDAIYTAENYGPPVKPPGIIYDSLGYVNTVERIRRIAQETNSKIWFGHDAEQFKQFRKSTEGYYE | not soluble
4 | MGSDKIHHHHHHMKFPGQRKSKHYFPVKNRDPLLAQLTLQPQHISTHISGIDQTLVDIEAKVGDDLLSRYALPKGNSTLIDDEKAHQLYTELKSSELISDEFAGGTIGNTVHNYSILADDRSVLFGVMSNHIEVGSYAYRYLCNTSSKVDLNFLQPVDGPIGRCFTLISECGERTFAISKGSMDKLTPEYIDQEIVQTSSALVLTAYLMRASGGDKITDAALKAIEYAKAADVPVVLTLGTRFLIEEDPQWWIDFIKENVTILAMNEDEGEALTGFKDPLSASNAALEWCDMVLTTAGPLGLYTAGYTEDSEKRETSHTLLPGAIPEFNRYEFSRPKLKRDCQTPIKVFAHISPYMGGPEIIRNTNGAGDGALAALLHDLASNTYHKANVPGSSKHKRDGLCYSSFSQICKYANRVAYEVLAQHSPRLSRGLPEREDSLEEAYWER | not soluble
5 | MGSDKIHHHHHHMNLTELMERIPHLREILNIVREAFKDYDDPAHDISHTFRVMENASEIASREKCDLQKAIIAALLHDIKRPHEALTGVDHAESGAEYASGLLPTMGFDISFVAEVSKAIRSHRYSGGLTPTSLTGKILQDADRLDAIGAVAIARVFSYSGKTGTPLHSLQFSPRSSYSGNSRSSINHFHEKILKIRPETFWTETARKMAEDRYSFVVEFVQRFLAEWGQI | not soluble
6 | MSFERSRHDLKLKTSDGMHCVMTNKEIVCLASQFFRQHLKDTTTEFTVGRADSVESIDICLTYMITGIYKKPAQFSPKLASEIFALANQWKVLEPKVLKNSIEKHCCEELQKNYEDIMYVCNMLIIAEDAHFTNVQSCCIATLVFYHVRDFIRIIVNGVESPTEECFSQRREFLKPSLTMQAKRAFAASNEAKCFIKFLPAIGED | not soluble
7 | MAHHHHHHMNRSSSTSVNKDNVLQLTYYEIFSLDEVAESIDLQALHRAYRRFALLFHPDKDASPEAREAFLRVKLAAETLSDPIKRQEYNEQLRREAHEQREVKEQQRECGVGEEAIMAEMILRQKEAESLAKSAAANKEAAEREAAAKKMINELTNALTTPFKQMETALVSEWDIDEGLLDMKVNEIRLLLQKLHNLSCHREGRKGGGGAMGFSSGSEALPTAVKRTREESGVNITA | not soluble
8 | MGSDKIHHHHHHMSSDVQKGDNLETPGARDLLLQTASNIMREGDVVDISLSELSLRSGLNSALVKYYFGNKAGLLKALLDRDMENIVKSVDALLAKDDMSPEAKLRRHISKCIDTYYDYPYLNRLLMRLVRDSDEAEAKRIADQYLLPLHRAYNRFIGEGVKAGVFRPINPQLFYFTVTGAADRFFSARLVLKHCFDQDTLTEQLRDSYREHTVDFIMAGILAH | not soluble
9 | MEFYPIHILLSKLEEEIAFQQKMATTYLVSPPKYSPEVIGTVSETLRRISADLKLVSLILGELEEVQERDIKEEALILSSESLSLISLLLPAIEKYAPFFLESMKVERKPILEKLEDVMAEIENAIEKLELSSSREIIRSLEELAQSLEISLKMGERILERES | not soluble
10 | MSQRKAQNDYQKIIRSLSDRIVEAQTPIRVLDAIKWDDGIRQDFLKGRGKHAPKVDRGYYDSRPLAFDASAKKQEFQNIERDITRQLGQFNPVGQIMRRMCKEYRMVIRMLEARGTPDLGLISQELYGSASDAFHAGDPTLADLGLMLSDYLNNIADRGDLKDEPKTLTAKEVVPILQARLNTVFGEEEGTIRVFESDGIVADAAAGADYIKVRADALFNERDVRALEVHEGLVHVGTTLNGLSQPICTFLAKGPPSSTVTQEGLAILMEVIAFASYPTRLRKLTNRTRAIHMAEEGADFLDVFHFYREQGYSLEDSYQNASRVFRGSTPDGLPFTKDLSYLKGFILIYNYIQLAVRKGKLEQIPLLFCGKTTLEDMRTLRQLVDEGLVAPPKYLPPQFRDLNALSAWMCFSNFLNHLSLDRIEADYANILAAALEHHHHHH | not soluble
11 | MADKLDEIIDKVASGQRKKDTIEDTEEEGTRKRKIEQFEDIERPNELSGFKKQKIEENSEIHAEETEESVEAQMVMKKPSEEPELKRRKILIHMEPSITETNPMRIWTVADDLALLTAVAHVQCIRFIHNSLTFSRKFTFSDVEERYCQLMFDEEISKSAKVRLDAMPHRLKAQIEARTPFTRNEERTLMELAENQLKNARKERQDVENHTVLTILHFKKILDGNRQSFHKSRTPQVLSDHYRRIKGYRSEQGNNYNWQALEALTDGNTMDFDINAPLQAARSRYAAISRRPALSGILNRFKTSGSVPDNAIAMINGQFLQYAMTGKSVTMGRASLNEKIDIDLSKEGPATKVLEGRRQLFPVNKR | soluble
12 | MEARAIVIIPDTLKVGFIIGGRRGQGLMSIKTPQNTWSQPVFVKLTGGSIGLQAGVQSSDVVLVFRNDRNLDNIVNGKFTLGADASVAAGPVGRNALAATDSELKAEIYSWSTARGLFAGIALDGAALQIDDSANLDVYGKGTTPRMIFEGRTAEPPSSDVIAFRDRLEEVTYTARNNLEHHHHHH | not soluble
13 | MNEKNIKHSQNFITSKHNIDKIMTNIRLNEHDNIFEIGSGKGHFTLELVQRCNFVTAIEIDHKLCKTTENKLVDHDNFQVLNKDILQFKFPKNQSYKIFGNIPYNISTDIIRKIVFDSIADEIYLIVEYGFAKRLLNTKRSLALFLMAEVDISILSMVPREYFHPKPKVNSSLIRLNRKKSRISHKDKQKYNYFVMKWVNKEYKKIFTKNQFNNSLKHAGIDDLNNISFEQFLSLFNSYKLFNK | soluble
14 | MTNSNNRQSEYPVDPLFLDRWSPRAFDGSPMPKEHLLTILDAAHWAPSASNHQPWRFVYAHKDSEDWPLFVELLMEGNQKWAKNASVLLFVISRDHTISHEGEKKPSATHSFDAGAAWFSLAMQAHLLGYHAHGMGGIFKDRIVEKLDIPDGFKVEAGVAIGTLTDKSILPDDLAEREVPSKRVPLADVAFEGRFTGKAD | soluble
15 | MRSQRVFTTIDTHTGGNPTRTLISGLPKLIGETMAEKMLHMKKEYDWIRKLLMNEPRGHDVMSGALLTDPCHPEADIGVIYIETGGYLPMCGHDTIGVCTALVESGLIPVVEPITSLKLDTPAGLVEVDIAVQDGKAKEVSFCNIPAFLLKNITVQVKDIGTIEADIAYGGNFYAIIDAKSVGLELIPENASTIIDKAIHIRNTINEKFEIIHPEYSFIRGLTHVEFYTDATHECAHVKNTVIVPPGGIDRSPCGTGTSAKLAVLYAQKEIKIGEEFIHESIVGSLFKGYVVNTTHVENIEAVITKITGSAWLMGMHKFFYNEMDPLKEGFLLIPPMEHETEDIKMAGDPNSLEHHHHHH | soluble
16 | MKKKGKFLLFTMDEFDQWLLETRFSRSVKLVQNHHTYLPGYVQFTGSNHFGLLEGMEHFHMAERGFSEIAQNLTSFPDGTVAVCRSIDKVPCGIKGANQEGICLENLGNFDAGGDTMTPAHRDAIVKINALLCREFNLTPNTDSIVYHHWYDLNSGKRTGGSGTTKTCPGTAFFGGNSMDAAAATFIPLVAQTLAQLTGGTAPSAPVPLKSGEVVASSLNVRAGRGTEFPVVKGLKRGVRVNVFETADGWVRIHPTEQQWVAERYLRYAAAALEHHHHHH | soluble
17 | MIDVIEAGLFTTVQDGGRFGYRHAGVPAGGAMDAWAYRLANALVGNNGDEAVLEATIAGPTLRFRVEAVVAVCGGDFPCTLNGRTFALWKPMAVEPGDVLEVGVCRTGFRAYIAVSGGIDVPPVMGSRSTYVPAQLGGLSGRPLQRGDALPVGVTHGRRVIGRMRWGLASAARRYIGGKTKTVRAVPGPEYDEFTPASRRQFFAARYEVTTQSDRIGYRLSGPTLALVREREMVSEAVVFGTVQVPASGQPIVLMADSQTTGGYPRIAQVAAVDLPILAQARPGDFIQFQPIGPEEAMWLYKEQQQRLARWITAIRRQWEGER | not soluble
18 | MSLKVAVIGAGAMGGLYGAYLSRKNDVYMIDINEKVVKSINENGLIIYERENNKKEKFLVSAFTDSSNLGPMDLVIIFVKNLYTTSALKNNLNLFSDSTLVITLQNGAGNDRDLEKFIKKENILIGTTEHSCSILETGEVSHNQEGITNIGMLVYNDNIIKRISDEFKACSLKTEVYQNIQEIIWSKLFINMALNSTTAILNCKVGYLEKSKDASEIVQSILSEAVDVAIADGTFFNKKEVIDKVQKCIREDLPNAITSMNQDVSNKRLTEIDHINGAVANLAKLYKIPTPYNDCIIHIIHALEGLYNEGHHHHHH | soluble
19 | MAAGESMAQRMVWVDLEMTGLDIEKDQIIEMACLITDSDLNILAEGPNLIIKQPDELLDSMSDWCKEHHGKSGLTKAVKESTVTLQQAEYEFLSFVRQQTPPGLCPLAGNSVHADKKFLDKHMPQFMKHLHYRIIDVSTVKELCRRWYPEDYEFAPKKAASHRALDDISESIKELQFYRNNIFKKKTDEKKRKIIENGETEKPVS | soluble
20 | AHHHHHHGSLSERELERYDRQIMIFGIEGQEKLKKANVAVVGVGGLGSPVAYYLAAAGVGTILLIDEQTPELSNLNRQILHWEEDIEKNPKPISAKWKLERFNSNIKIETFVGRLSEENIDEVLSGVDVIVDCLDNFETRYLLDDFAHKKGIPLVHGAVEGFYGQVTTIIPGKTKRLREIFPKVKKKGKFPIVGATAGVIGTIQASEVIKLITGYGEPLANKLLIIDLANNTYEIIEI | soluble
21 | MERFLRLGGLGGNLGTFGANPQDSNQVDTSETVYISSLALLKMLKHGRAGVPMEVMGLMLGEFVDDYTVNVIDVFAMPQSGTGVSVEAVDPVFQAKMLDMLKQTGRPEMVVGWYHSHPGFGCWLSGVDINTQQSFEALSDRAVAVVVDPIQSVKGKVVIDAFRTINPQSMALNQEPRQTTSNLGHLQKPSIQALIHGLNRHYYSIPIAYRTHDLEQKMLLNLNKLSWMDAVSVENYSKCGEQNKEHLKAMLKLAKNYKKALEDEKNMTDQELAIKNVGKMDPKRHIADEVSKMLNDNIVQSLAGMMATTSLQ | not soluble
